The source of these data is IntAct's records for PubMed 18772386.

B1: Mpv17-like protein (Mus musculus), Q99MS3-1 (parent)
chain: MASWWRAFPQAARRYPWPTNVLLYAGLFSAGDALQQRLRGGPADWRQTRRVATLAVTFHGNFNYVWLRLLERALPGRAPRTVLAKVLCDQTVGGPIALSAFYVGMSVLQGKDDIFLDLKQKFWNTYKSGLMYWPFVQLTNFSLVPVHWRTAYTGLCAFLWATFLCFSQQSGDGTLQSIFIFLRRKEASDKSPEK
partner: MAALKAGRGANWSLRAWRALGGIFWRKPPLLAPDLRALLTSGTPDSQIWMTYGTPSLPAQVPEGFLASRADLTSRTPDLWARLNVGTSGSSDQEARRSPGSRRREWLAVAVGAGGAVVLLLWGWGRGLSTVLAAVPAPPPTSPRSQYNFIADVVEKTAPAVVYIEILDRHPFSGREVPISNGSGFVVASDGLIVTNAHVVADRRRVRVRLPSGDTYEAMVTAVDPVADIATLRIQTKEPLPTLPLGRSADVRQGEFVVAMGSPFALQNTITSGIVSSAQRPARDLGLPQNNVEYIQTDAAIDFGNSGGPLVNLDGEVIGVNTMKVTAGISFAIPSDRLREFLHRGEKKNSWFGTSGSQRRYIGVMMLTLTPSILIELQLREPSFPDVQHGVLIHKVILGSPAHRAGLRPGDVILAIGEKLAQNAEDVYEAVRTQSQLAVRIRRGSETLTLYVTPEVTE

Variants of B1 are the subject of this assay. As to conditions: with htra2_mouse Htra2, Q9JIY5.
As for D112A;I114A, the “effect of a mutation on the interaction” value is “decreasing interaction”.
